Measured values published in the DeepSol protein solubility set.

Assay: soluble on expression in E. coli; label from the status in PepcDB or PDB records

Sequence	soluble on expression in E. coli
MVDPVGFAEAWKAQFPDSEPPRMELRSVGDIEQELERCKASIRRLEQEVNQERFRMIYLQTLLAKEKKSYDRQRWGFRRAAQAPDGASEPRASASRPQPAPADGADPPPAEEPEARPDGEGSPGKARPGTARRPGAAASGERDDRGPPASVAALRSNFERIRKGHGQPGADAEKPFYVNVEFHHERGLVKVNDKEVSDRISSLGSQAMQMERKKSQHGAGSSVGDASRPPYRGRSSESSCGVDGDYEDAELNPRFLKDNLIDANGGSRPPWPPLEYQPYQSIYVGGMMEGEGKGPLLRSQSTSEQEKRLTWPRRSYSPRSFEDCGGGYTPDCSSNENLTSSEEDFSSGQSSRVSPSPTTYRMFRDKSRSPSQNSQQSFDSSSPPTPQCHKRHRHCPVVVSEATIVGVRKTGQIWPNDGEGAFHGDADGSFGTPPGYGCAADRAEEQRRHQDGLPYIDDSPSSSPHLSSKGRGSRDALVSGALESTKASELDLEKGLEMRKWVLSGILASEETYLSHLEALLLPMKPLKAAATTSQPVLTSQQIETIFFKVPELYEIHKEFYDGLFPRVQQWSHQQRVGDLFQKLASQLGVYRAFVDNYGVAMEMAEKCCQANAQFAEISENLRARSNKDAKDPTTKNSLETLLYKPVDRVTRSTLVLHDLLKHTPASHPDHPLLQDALRISQNFLSSINEEITPRRQSMTVKKGEYRQLLKDSFMVELVEGARKLRHVFLFTDLLLCTKLKKQSGGKTQQYDCKWYIPLTDLSFQMVDELEAVPNIPLVPDEELDALKIKISQIKSDIQREKRANKGSKATERLKKKLSEQESLLLLMSPSMAFRVHSRNGKSYTFLISSDYERAEWRENIREQQKKCFRSFSLTSVELQMLTNSCVKLQTVHSIPLTINKEDDESPGLYGFLNVIVHSATGFKQSSNLYCTLEVDSFGYFVNKAKTRVYRDTAEPNWNEEFEIELEGSQTLRILCYEKCYNKTKIPKEDGESTDRLMGKGQVQLDPQALQDRDWQRTVIAMNGIEVKLSVKFNSREFSLKRMPSRKQTGVFGVKIAVVTKRERSKVPYIVRQCVEEIERRGMEEVGIYRVSGVATDIQALKAAFDVNNKDVSVMMSEMDVNAIAGTLKLYFRELPEPLFTDEFYPNFAEGIALSDPVAKESCMLNLLLSLPEANLLTFLFLLDHLKRVAEKEAVNKMSLHNLATVFGPTLLRPSEKESKLPANPSQPITMTDSWSLEVMSQVQVLLYFLQLEAIPAPDSKRQSILFSTEV	soluble
MVERMERTMPTTAVRDATSSRRFQPGQAVVGRVERVEEMETEERAALVRAGGQLVRARLEAPLAVGRLYLFEIHERQGTIYWKAIPLSEPASAPSGEEAVRGWQKAWKLPDAALPVLRQALKAGAAATKEEIAALTEAVKETGQPDAAEDVLAHLFRRRLPFSSAVFRALWAAKTGVPLAEGLGKLKAAIAALSAHPAALKLIRAMEKFLSPPLSAYEAAVRLLLSGEEEAETARALLARLGLAPLPEDRRLALREAVQCRRFADIIRQLGLTDEEAFLERWAALDAAYQSGALPAAEAKLWAAARATRDPALSLFCWLRRAAVRLGLEDEAALVRVGKIEDLPSAPSLKRLLLRFLHESGSEGAKRAAEAILDQLDGMAIAAGGDGLIEHVWISFPLPLGGRSSDFAVCWQGRRKQGGPLDADYNRIVCCLTLEELGEVIVDMRVQRRIVHISIFHDDPRLAVAAARMAPLVKERFQAHGYALSGIDVKATRSAPPPPSVFLFADSCSEVDCQA	not soluble
MVEVKNLVAITGPKMPYELARLLKISHARATRLAAAANAQNPTPSRARTSDAQAQQPAAASPKPPAEPVAAEPKKKRAKKATPVEAGLPPLTGKITGGHACAFDVVGESYYQPALRRLRNGRHMATDNDFVADIVAEPDNPHDPNACAVYIEGFKVGYLPRDAAADFQQQVADMGVTGTWRLQTKAKLSGGWGDRPMVGVLLSLPKSLEHHHHHH	soluble
MVFFSVVVPTYNRRPILEKCLRALEQQQISAETAIAGYEVVVVDDGSTDGTVDWLKAQASEFPHVRLFEQDHQGPARARNLGVQQAQGDTIIFIDSDLVVTPPFLQAHATGLEKGRQRLGSDRCFTYGAVINTCNFDNPTAEPFKVTDFSNAYFATGNVAIARHWLETAGLFDTAFQLYGWEDLELGVRLKNLGLKLIRCPEAVGYHWHPPFSLEQIPKLIDQESQRGRMGVLFYQKHPTWEVRLMIQMTWLHRLLWGTLSLGGFLNERTLRPLLAWLLKRDRPQLALEIARIFLNWNNVRSVYAAYRESQGLASSLEHHHHHH	soluble
MVFNFLIVSDEVEDFRREIAIDSEATFLDLQNAILDSVGYSHSELTSFFLCDEDWHKGQEITLMEMDTASDEDSYVMENTRLEEFIEDEHQRLVFEFDLMTERYFFIEVMDIVPGKSLSEPKLLTSEGLPPQQSSLDDLMDPTAIPTKQARGLDLEEDFFGDSEYNEDEIDREGFEGFDEITSDLSDNY	not soluble
MVGFLKHLVPKRFRKKELVIPVVRMQGAIMAGGNQFRPALNLASYAPLLEKAFAVKDAPAVAISLNSPGGSPVQARMIYNRIRQLAEEKDKKVLIFVEDVAASGGYMIALAGDEIIADPTSIVGSIGVVSGGFGFPEMLRKIGVERRVYTAGENKVILDPFQPEKEGDIDYLKSLQVEIHNVFIDMVKMRRGSKLKGDDALFSGLFWTGMRGLDLGLIDGLGDMREVLRRRYGTKVKLQLISGGRSLFGKKVPGVNMALGLNAERLAAGAVSGLAEVAEEKALWSRFGLLEHHHHHH	soluble
MVGNTFGRIFRVTTCGESYAGAFRKNLQIPKELFGGLIAIVDGVPPGIKLTADFVQEELDKRRPGKTPLDTPRKERDKVYIFSGVMEDDITTGAPVGMIIPNDVIEDEHINKHKSYKEVVRPGQAGYTFFKKYGQFADNIGAGRASGRETAARVAAGAVAKAVLDTMGIDVIAFVTEIHGIKAQENITYEMAKANYRKNEINCPDLEKAKEMIEELKRIKEEGDSVGGVVEIIARGVPAGLGEPVFDKLQATLAHALMSIGAIKGIEFGEGFGHTKLKGSESNDVPYYDEASGRVRFKTNRAGGILGGISNGEDIRIRVAVKPTPTISIPQKTVNMYTLENVEVEFNTRNDPSICPRIYPVCEAMVRIALLDALYIAKGYRAISSNIDPRWDRL	not soluble
MVHAFLIHTLRAPNTEDTGLCRVLYSCVFGAEKSPDDPRPHGAERDRLLRKEQILAVARQVESMCRLQQQASGRPPMDLQPQSSDEQVPLHEAPRGAFRLAAENPFQEPRTVVWLGVLSLGFALVLDAHENLLLAEGTLRLLTRLLLDHLRLLAPSTSLLLRADRIEGILTRFLPHGQLLFLNDQFVQGLEKEFSAAWPR	not soluble
MVHLAKYIVVTGGVVSSIGKGITAASIGRILRSYGLSVTAIKIDPYLNWDSGTLNPYQHGEVFVTDDGMETDLDLGHYERFLDSDLPGEANITTGKVYMSVINKERSGDYLGSCVQIIPHITDEIKSMIRKIADKSGAEVVLVEVGGTVGDIEGQPFLEALRQLRNEEGHENVMFVHVTYVPYLRAAGEFKTKPTQHSTKELRSTGINPDMIICRSEMPIDSSLKRKIAHFCDVEEEAVVNAPDASSIYEVPLVLDSERVGDYIVRRIELDVDGEADLSEWAGIVESLMIDEPVVTVGIVGKYVELEDSYISIREALKHAAAHLRVRVDIEWISADDAVNEEDLSRLDSILIPGGFGERGIAGKLEAVRFALENRVPIFGICLGMQCMVIEFARLNGMEGANSTEFDPETPYPVIDMMEEQKRIKNMGGTMRLGSYQCRIREGTLAHEAYGTELVGERHRHRFELNNEFREELESKGLIISGTSPDDFLVEMVEIKDHPWFLGCQFHPEFRSRPNRAHPLFVSFLRAALERSR	soluble
MVHYKLTYFNGRGAGECARQVFALADQKYEDVRLTQETFVPLKATFPFGQVPVLEVDGQQLAQSQAICRYLAKTFGFAGATPFESALIDSLADAYTDYRAEMKTYYYTALGFMTGDVDKPKTDVLLPARTKFLGFITKFLKKNSSGFLVGDKISWVDLLVAEHVADMTNRVPEYIEGFPEVKAHMERIQQTPRIKKWIETRPETPF	soluble
MVILLPMVTFTMAYLIVDVPKPGDIRTNQVSTILASDGSEIAKIVPPEGNRVDVNLSQVPMHVRQAVIAAEDRNFYSNPGFSFTGFARAVKNNLFGGDLQGGSTITQQYVKNALVGSAQHGWSGLMRKAKELVIATKMSGEWSKDDVLQAYLNIIYFGRGAYGISAASKAYFDKPVEQLTVAEGALLAALIRRPSTLDPAVDPEGAHARWNWVLDGMVETKALSPNDRAAQVFPETVPPDLARAENQTKGPNGLIERQVTRELLELFNIDEQTLNTQGLVVTTTIDPQAQRAAEKAVAKYLDGQDPDMRAAVVSIDPHNGAVRAYYGGDNANGFDFAQAGLQTGSSFKVFALVAALEQGIGLGYQVDSSPLTVDGIKITNVEGEGCGTCNIAEALKMSLNTSYYRLMLKLNGGPQAVADAAHQAGIASSFPGVAHTLSEDGKGGPPNNGIVLGQYQTRVIDMASAYATLAASGIYHPPHFVQKVVSANGQVLFDASTADNTGDQRIPKAVADNVTAAMEPIAGYSRGHNLAGGRDSAAKTGTTQFGDTTANKDAWMVGYTPSLSTAVWVGTVKGDEPLVTASGAAIYGSGLPSDIWKATMDGALKGTSNETFPKPTEVGGYAGVPPPPPPPEVPPSETVIQPTVEIAPGITIPIGPPTTITLAPPPPAPPAATPTPPP	soluble
MVKCLSAHNKAPHVSVITPSYNSRRFIGETILSVQNQSYENWEMIIVDDCSTDQSAAKIKEIIEGDSRIRLLSLKENVGAAKARNLAIREARGRYIAFLDSDDIWLPHKLKTQLLFMEEMNIAFSYASYSLIDENGNELNREVSVPKSVDYHYLVGNTIIGCLTVMIDREKIPYVEMPSVQPEDTALWLNLLHEGHEAKGIQQVLAKYRIVANSVSSNKVRAAFRYWKLLRDQKSLNAVQSFYYFSKYAYHAYKKNKINVVGKTQLLEHHHHHH	not soluble
MVKLILAEVFNSWQGEGGSVPGSAFGRRQIFVRFAGCDLRCIWCDSSQFIDASKVKKWRIEVEPFSGRFEYRENPASIDEVVDAILKLDTGDLHSISYTGGEPTLQIEGLYILMERMKGLGFDNFLETHGGHPELIKRVSYLTDYASVDIKDESARASRDWRGLVLKEVESIKILKEAGAKVYAKLVVTRETKLENVKWYANLLKGVAPLAIQPKEPMDISMEYLMKLYREAARIMGKKNVGLSFQVHKYLKVL	soluble
MVKNVAVIVDSSFYIPKEEQQKYNIYVIPTPIIFNGRIKYDSDWSSAAKFFKDMNSAKKMPSTSMASPADVLKAFEQVRADGYRQAILMTMASGISGFYNMAVNLANDYQELDVQVWDSKFTLMISGVQALLAAELSAQGITREEIMKKVALLRDSTRVFIVVDDISHLKRTGRLAGGAALVAGLLNIKPILVFNKASKIVAIGKERQMKRAWNWLLKQYAIDAPDFDRPIRVLFADANNRALTENWQADFHEKYPDVITDFIPIGPLIGVHTGEKAVGFVYMDDWKDIARHH	not soluble
MVKRREAFEIEGKRVIAGSQMGIKLPAAKLYTDTQLDIHVEVFHGVKPGPTLLVCAAIHGDELNGIEICRRLLGRVNPKNLAGTLIVVPIVNVFGFIQQSRYLPDRRDLNRCFPGSSKGALASRLANLFATQLLVHATHVIDLHTGAIHRDNLPQIRCDTNDETMLAMANAFGAPLIMHSKARSVSMRGYANQQGIPCILYEAGEALRFSELAIKSGLKGVLNVMRSLGMLKGRVSNKIASVSAIRSYWIRSESDGLVNMKLKLGQRVNKGYIIAHIVSPHGGDSVAIRAPTDGIIIGISNIPVTNEGEGMFHIAQFEGDEIEIANEQLDEFLMEYA	not soluble
